Measurements reported in patent publication US20100272753A1.

Target: native circumsporozoite protein (CSP) on intact P. falciparum sporozoites (Plasmodium falciparum) (UniProt Q7K740)
Experiment: indirect immunofluorescence on intact P. falciparum sporozoites

Sequence of UniProt Q7K740 (Q7K740 19-374): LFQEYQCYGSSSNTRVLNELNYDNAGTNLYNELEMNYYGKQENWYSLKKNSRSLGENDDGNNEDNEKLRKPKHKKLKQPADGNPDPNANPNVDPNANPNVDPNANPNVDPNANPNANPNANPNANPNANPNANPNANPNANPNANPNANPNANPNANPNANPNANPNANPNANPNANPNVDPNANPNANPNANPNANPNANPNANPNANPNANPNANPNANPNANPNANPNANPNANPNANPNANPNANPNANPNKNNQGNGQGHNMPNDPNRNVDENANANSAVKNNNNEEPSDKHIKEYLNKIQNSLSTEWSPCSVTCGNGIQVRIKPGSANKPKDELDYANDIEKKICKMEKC

Substance: anti-P. falciparum NANP monoclonal antibody 2A10
- dilution positive in immunofluorescence (reciprocal dilution): 16000
